Test [1] concerns the target T1, VEGFR2-Fc (UniProt P35968 20-764, limits assumed).
T1 construct: Neither the source nor the limits of the VEGFR2-Fc construct are stated; also called VEGFR2 receptor; not shown: Fc part
Put plainly: yeast surface display: VEGFR2/PSMA displayed on the yeast cell surface, titrated with soluble VEGFR2-Fc (upper table; taken as the yeast-display table from legend paragraph 18).

In test [2] the target is T1, VEGFR2-Fc. Put plainly: yeast surface display, titration with soluble VEGFR2-Fc, % maximum VEGFR2-Fc bound.
The target of test [3] is T2, prostate specific membrane antigen (PSMA) (UniProt Q04609 44-750, limits assumed).
T2 construct: also called folate hydrolase I
Put plainly: yeast surface display, titration with soluble PSMA, PSMA bound in arbitrary fluorescence.

Test [4] addresses T1, VEGFR2-Fc. Put plainly: soluble protein binding to VEGFR2-Fc, Octet platform (lower table; taken as the soluble-form table from legend paragraph 18 and paragraph 153). The text has this:
The Octet® platform was used to measure the soluble affinity of the variants to VEGFR2-Fc and their respective target proteins. As with the results on the yeast surface, the variants' affinities to VEGFR2-Fc were similar to each other and to scVEGFmut.

In test [5] the target is T2, prostate specific membrane antigen …. Put plainly: yeast surface display: VEGFR2/PSMA displayed on the yeast cell surface, titrated with soluble PSMA (upper table; taken as the yeast-display table from legend paragraph 18).
Test [6] addresses T1, VEGFR2-Fc. Put plainly: yeast surface display: scVEGFmut displayed on the yeast cell surface, titrated with soluble VEGFR2-Fc (upper table; taken as the yeast-display table from legend paragraph 18).

Consider two molecules from patent US20170204150A1 (Stanford University, published 2017).

As usually defined, the Kd is the equilibrium constant for the complex coming apart. In general, EC50 (read off the curve) refers to the concentration that produces a half-maximal response. Higher therefore signals a less potent agent.

T1 sequence (P35968 20-764 limits assumed): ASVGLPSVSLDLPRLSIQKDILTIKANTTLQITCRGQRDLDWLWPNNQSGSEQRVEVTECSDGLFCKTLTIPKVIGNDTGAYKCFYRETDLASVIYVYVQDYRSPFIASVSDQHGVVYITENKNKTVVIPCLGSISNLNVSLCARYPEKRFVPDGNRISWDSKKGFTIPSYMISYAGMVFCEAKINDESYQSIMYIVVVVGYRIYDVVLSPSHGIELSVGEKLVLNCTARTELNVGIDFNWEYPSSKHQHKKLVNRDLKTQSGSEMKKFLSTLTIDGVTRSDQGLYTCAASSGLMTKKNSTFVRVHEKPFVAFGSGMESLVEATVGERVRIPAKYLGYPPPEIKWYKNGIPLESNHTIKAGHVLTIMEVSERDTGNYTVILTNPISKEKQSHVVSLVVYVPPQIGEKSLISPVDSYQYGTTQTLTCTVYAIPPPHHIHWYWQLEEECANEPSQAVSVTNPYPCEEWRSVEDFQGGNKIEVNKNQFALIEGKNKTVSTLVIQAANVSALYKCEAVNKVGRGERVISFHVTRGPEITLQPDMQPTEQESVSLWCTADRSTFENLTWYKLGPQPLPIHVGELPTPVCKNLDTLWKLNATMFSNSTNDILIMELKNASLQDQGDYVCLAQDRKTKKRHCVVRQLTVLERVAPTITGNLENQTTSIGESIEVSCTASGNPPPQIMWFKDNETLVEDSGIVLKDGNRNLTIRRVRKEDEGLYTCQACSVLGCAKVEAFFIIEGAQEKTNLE
T2 sequence (Q04609 44-750 limits assumed): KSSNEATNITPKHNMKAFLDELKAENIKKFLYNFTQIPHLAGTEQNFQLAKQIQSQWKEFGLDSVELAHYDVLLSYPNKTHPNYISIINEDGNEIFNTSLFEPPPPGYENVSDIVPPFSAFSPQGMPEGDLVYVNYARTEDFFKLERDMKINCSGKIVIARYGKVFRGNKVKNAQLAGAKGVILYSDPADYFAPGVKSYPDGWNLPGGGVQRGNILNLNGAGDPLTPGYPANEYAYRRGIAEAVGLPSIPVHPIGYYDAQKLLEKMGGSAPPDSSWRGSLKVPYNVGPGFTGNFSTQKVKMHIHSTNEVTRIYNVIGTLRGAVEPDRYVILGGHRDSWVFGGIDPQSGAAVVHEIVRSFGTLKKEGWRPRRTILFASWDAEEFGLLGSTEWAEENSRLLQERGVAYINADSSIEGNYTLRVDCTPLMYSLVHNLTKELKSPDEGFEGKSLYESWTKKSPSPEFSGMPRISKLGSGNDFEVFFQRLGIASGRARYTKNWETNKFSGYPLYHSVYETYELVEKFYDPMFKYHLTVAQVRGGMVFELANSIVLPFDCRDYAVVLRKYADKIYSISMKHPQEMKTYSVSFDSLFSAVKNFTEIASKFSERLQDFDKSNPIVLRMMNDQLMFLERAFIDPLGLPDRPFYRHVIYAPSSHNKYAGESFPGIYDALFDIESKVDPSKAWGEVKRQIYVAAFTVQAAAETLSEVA

B1: VEGFR2/PSMA protein (designed binder)
chain: EVVKAMDVYQRSYCHPIETLVDIFQEYPDEIEYIFKPSCVPLMRCGGCCNDAGLECVPTEESNITMQIMRIKPHQGQHIGEMSFLQHNKCECRPKKDGGGGSGGGGSGGGGSGGGGSEVVKFMDVYQRSYCHPIETLVDIFQEYPSIASWNPWMAFKPSCVPLMRCGGCCNDEGLECVPTEESNITMQIMRNRLFRYLPVRHIGEMSFLQHNKCECRPKKD
On to B1, for which the dissociation constant (Kd) was found to be 4.6 nM in test [1], 13 nM in test [4] and 58 nM in test [5]. Besides, the figures for the concentration for a half-maximal effect (EC50 (read off the curve)) in test [2] and in test [3] were roughly 4 nM and roughly 40 nM, respectively.

B2: scVEGFmut (ligand)
chain: APMAEGGGQNHHEVVKAMDVYQRSYCHPIETLVDIFQEYPDEIEYIFKPSCVPLMRCGGCCNDAGLECVPTEESNITMQIMRIKPHQGQHIGEMSFLQHNKCECRPKKDRARQEKCDKPRRGGGGSGGGGSGGGGSGGGGSAPMAEGGGQNHHEVVKFMDVYQRSYCHPIETLVDIFQEYPDEIEYAFKPSCVPLMRCGGCCNDEGLECVPTEESNITMQIMRAKPHQGQHIGEMSFLQHNKCECRPKKDRARQEKCDKPRR
notes: also called single-chain antagonist mutant VEGF; scaffold protein
Turning to B2, the “EC50 (read off the curve)” value in test [2] was roughly 6 nM. Also, the dissociation constant (Kd) in test [6] turned out to be 6 nM; in test [4], 13 nM.
